From the supplement of paper PMC12338614
± gives the uncertainty stated by the source.

B1: library; numbered along this chain (parent)
chain: MEVVDPQQLGMFTEGELMSVGMDTFIHRIDSTEVIYQPRRKRAKLIGKYLMGDLLGEGSYGKVKEVLDSETLCRRAVKILKKKKLRRIPNGEANVKKEIQLLRRLRHKNVIQLVDVLYNEEKQKMYMVMEYCVCGMQEMLDSVPEKRFPVCQAHGYFCQLIDGLEYLHSQGIVHKDIKPGNLLLTTGGTLKISDLGVAEALHPFAADDTCRTSQGSPAFQPPEIANGLDTFSGFKVDIWSAGVTLYNITTGLYPFEGDNIYKLFENIGKGSYAIPGDCGPPLSDLLKGMLEYEPAKRFSIRQIRQHSWFRKKHPPAEAPVPIPPSPDTKDRWRSMTVVPYLEDLHGADEDEDLFDIEDDIIYTQDFTVPGQVPEEEASHNGQRRGLPKAVCMNGTEAAQLSTKSRAEGRAPNPARKACSASSKIRRLSACKQQ

Variants of: B1
Assay: STK11 functional score (HeLa growth suppression), rescaled enrichment; synonymous median = 1, nonsense median = 0 (normalised score)
Details: with HeLa; variant type: missense
Experimental: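 Deep mutational scan (TileSeq/POPCode codon randomisation) of full-length codon-optimised STK11 cDNA integrated at a Bxb1 landing pad (AAVS1) in HeLa cells. Restoring functional STK11 suppresses HeLa proliferation. Variant frequencies were measured by NGS before and after about two weeks of growth. The error-corrected enrichment log-ratio was rescaled so that synonymous median = 1 and nonsense median = 0, scores above 1 were compressed, and codon-level and three biological replicate scores were combined; error is the bootstrapped standard error. Scale: synonymous median = 1, nonsense median = 0; below 0.5 = damaging.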

In order of falling STK11 functional score:
1. MEVVDPQQLGMFTEGELMSVGMDTFIHRIDSTEVIYQPRRKRAKLIGKYLMGDLLGEGSYGKVKEVLDSETLCRRAVKILKKKKLRRIPNGEANVKKEIQLLRRLRHKNVIQLVDVLYNEEKQKMYMVMEYCVCGMQEMLDSVPEKRFPVCQAHGYFCQLIDGLEYLHSQGIVHKDIKPGNLLLTTGGTLKISDLGVAEALHPFAADDTCRTSQGSPAFQPPEIANGLDTFSGFKVDIWSAGVTLYNITTGLYPFEGDNIYKLFENIGKGSYAIPGDCGPPLSDLLKGMLEYEPAKRFSIRQIRQHSWFRKKHPPAEAPVPIPPSPDTKDRWRSMTVVPYLEDLHGADEDEDLQDIEDDIIYTQDFTVPGQVPEEEASHNGQRRGLPKAVCMNGTEAAQLSTKSRAEGRAPNPARKACSASSKIRRLSACKQQ [F354Q]  1.61 ± 0.14
2. MEVVDPQQLGMFTEGELMSVGMDTFIHRIDSTEVIYQPRRKRAKLIGKYLMGDLLGEGSYGKVKEVLDSETLCRRAVKILKKKKLRRIPNGEANVKKEIQLLRRLRHKNVIQLVDVLYNEEKQKMYMVMEYCVCGMQEMLDSVPEKRFPVCQAHGYFCQLIDGLEYLHSQGIVHKDIKPGNLLLTTGGTLKISDLGVAEALHPFAADDTCRTSQGSPAFQPPEIANGLDTFSGFKVDIWSAGVTLYNITTGLYPFEGDNIYKLFENIGKGSYAIPGDCGPPLSDLLKGMLEYEPAKRFSIRQIRQHSWFRKKEPPAEAPVPIPPSPDTKDRWRSMTVVPYLEDLHGADEDEDLFDIEDDIIYTQDFTVPGQVPEEEASHNGQRRGLPKAVCMNGTEAAQLSTKSRAEGRAPNPARKACSASSKIRRLSACKQQ [H313E]  1.43 ± 0.16
3. MEVVDPQQLGMFTEGELMSVGMDTFIHRIDSTEVIYQPRRKRAKLIGKYLMGDLLGEGSYGKVKEVLDSETLCRRAVKILKKKKLRRIPNGEANVKKEIQLLRRLRHKNVIQLVDVLYNEEKQKMYMVMEYCVCGMQEMLDSVPEKRFPVCQAHGYFCQLIDGLEYLHSQGIVHKDIKPGNLLLTTGGTLKISDLGVAEALHPFAADDTCRTSQGSPAFQPPEIANGLDTFSGFKVDIWSAGVTLYNITTGLYPFEGDNIYALFENIGKGSYAIPGDCGPPLSDLLKGMLEYEPAKRFSIRQIRQHSWFRKKHPPAEAPVPIPPSPDTKDRWRSMTVVPYLEDLHGADEDEDLFDIEDDIIYTQDFTVPGQVPEEEASHNGQRRGLPKAVCMNGTEAAQLSTKSRAEGRAPNPARKACSASSKIRRLSACKQQ [K262A]  1.23 ± 0.36
4. MEVVDPQQLGMFTEGELMSVGMDTFIHRIDSTEVIYQPRRKRAKLIGKYLMGDLLGKGSYGKVKEVLDSETLCRRAVKILKKKKLRRIPNGEANVKKEIQLLRRLRHKNVIQLVDVLYNEEKQKMYMVMEYCVCGMQEMLDSVPEKRFPVCQAHGYFCQLIDGLEYLHSQGIVHKDIKPGNLLLTTGGTLKISDLGVAEALHPFAADDTCRTSQGSPAFQPPEIANGLDTFSGFKVDIWSAGVTLYNITTGLYPFEGDNIYKLFENIGKGSYAIPGDCGPPLSDLLKGMLEYEPAKRFSIRQIRQHSWFRKKHPPAEAPVPIPPSPDTKDRWRSMTVVPYLEDLHGADEDEDLFDIEDDIIYTQDFTVPGQVPEEEASHNGQRRGLPKAVCMNGTEAAQLSTKSRAEGRAPNPARKACSASSKIRRLSACKQQ [E57K]  1.12 ± 0.74
5. MEVVDPQQLGMFTEGELMSVGMDTFIHRIDSTEVIYQPRRKRAKLIGKYLMGDLLGEGSYGKVKEVLDSETLCRRAVKILKKKKLRRIPNGEANVKKEIQLLRRLRHKNVIQLVDVLYNEEKQKMYMVMEYCVCGMQEMLDSVPEDRFPVCQAHGYFCQLIDGLEYLHSQGIVHKDIKPGNLLLTTGGTLKISDLGVAEALHPFAADDTCRTSQGSPAFQPPEIANGLDTFSGFKVDIWSAGVTLYNITTGLYPFEGDNIYKLFENIGKGSYAIPGDCGPPLSDLLKGMLEYEPAKRFSIRQIRQHSWFRKKHPPAEAPVPIPPSPDTKDRWRSMTVVPYLEDLHGADEDEDLFDIEDDIIYTQDFTVPGQVPEEEASHNGQRRGLPKAVCMNGTEAAQLSTKSRAEGRAPNPARKACSASSKIRRLSACKQQ [K146D]  0.483 ± 0.13
6. MEVVDPQQLGMFTEGELMSVGMDTFIHRIDSTEVIYQPRRKRAKLIGKYLMGDLLGEGSYGKVKEVLDSETLCRRAVKILKKKKLRRIPNGEANVKKEIQLLRRLRHKNVIQLVDVLYNEEKQKMYMVMEYCVCGMQEMLDSVPEKRFPVCQAHGYFCQLIDGLEYLHSQGIVHKDIKPGNLLLTTGGTLKISDLGVAEALHPFAADDTCRTSQGSPAFQPPEIANGLDTFSGFKVDIWSAGVTLYNITTGLYPFEGDNIYKLFENIGKGSYAIPGDCGPPLSDLLKGMLEYEPAKRFSIRQIRQHSWFRKKHPPAEAPVPIPPSPDTKDRWRSMTVVPYLEDLHGADEDEDLFDIEDDIIYTQDFTVPGQVPEEEASHNGQRRGLPKAVCMNGTEAAQLSTKSRAEGRAPMPARKACSASSKIRRLSACKQQ [N412M]  0.405 ± 0.69
7. MEVVDPQQLGMFTEGELMSVGMDTFIHRIDSTEVIYQPRRKRAKLIGKYLMGDLLGEGSYGKVKEVLDSETLCRRAVKILKKKKLRRIPNGEANVKKEIQLLRRLRHKNVIQLVDVLYNEEKQKMYMVMEYCVCGMQEMLDSVPEKRFPVCQAHGYFCQLIDGLEYLHSQGIVHKDIKPGNLLLTTGGTLKISDLGVAEALHPFAADDTCRTSQGSPAFQPPEIANGLDTFSGFKVDIWSAGVTLYNITTGLYPFEGDNIYKLFENIGKGSYAIPGDCGPPLSDLLKGMLEYEPAKRFSIRQIRQHSWFRKKHPPAEAPVPIPPSPDTKDRWRSMTVVPYLEDLHGADEDEDLFDIEDDIIYTQDFTVPGQVPEEEASHNGQRRGLPKAVCMNGTEAAQLSHKSRAEGRAPNPARKACSASSKIRRLSACKQQ [T402H]  0.157 ± 0.63
